Target: histone H2B tagged to mCherry (H2B-mCh) (UniProt P06899)
Test: FRET or BRET; phasor FLIM-FRET in live HeLa nuclei; donor eGFP-HP1α or eGFP-HP1α_(I165E) (stable, endogenous HP1α knocked down), acceptor H2B-mCh transiently transfected; fraction of pixels exhibiting FRET read as chromatin binding

For “eGFP tagged to wild type HP1α (eGFP-HP1α) (from UniProt P45973 1-191) (natural protein)”, the fraction of pixels exhibiting FRET (chromatin binding) was 20%.

In the case of “eGFP tagged to HP1α dimer mutant I165E (eGFP-HP1α_(I165E)) (from UniProt P45973 1-191) (natural protein)”, the fraction of pixels exhibiting FRET (chromatin binding) is reported as 11%.
